Measured values taken from patent publication US20240200091A1, “USE OF PROTOPORPHYRINOGEN OXIDASE” (BEIJING DABEINONG BIOTECHNOLOGY CO., LTD., priority 2021, published 2024).

B1: PPO7A: nucleotide sequence encoding microbial protoporphyrinogen oxidase PPO7 (SEQ ID NO:7), Arabidopsis thaliana/soybean common codon usage bias (nucleic acid)
DNA: ATGGATAAGATATTAGTCCTGTACAGTAGTCAAGATGGGCAGACGAGGAAGATTGTTGATGCAATGCTTGAAGAAATCTCTGGTTGTGATGTTGTGATTCAAGACTTGCACACACTACCGAAATGCAACCTATCCAAATATGCGAAAGTGTTGATTGGTGCTTCCATAAGGTATGGAAACTTCCATCCTTCTCTTCTCAGCTTCATCAATGCTCATCATGAACAACTTGAGGTTGCTAATGCGGCCTTCTTCTGTGTAAATCTCACTGCCCGAAAACCTGAGAAGCAAACTCCCCAGACAAACGCTTACATGAAGAAGTTTTTACGCTTATCACCATGGAAACCAAAGACCCTTGGAGTGTTTGCAGGAGCTTTGCAATATTCAAGATACAATTGGTGGCAAACCCGTATCATTCAGCTGATAATGAAAATGACTGGTGGCTCAACAGACACATCTCAGGATTTGGAGTTTACTGATTGGGTTAAAGTCCGGTCGTTTGCAAGAGAATTTTGGAGCAAGAGATGA
modifications: The nucleotide sequence of PPO7A
B2: PPO9A: nucleotide sequence encoding microbial protoporphyrinogen oxidase PPO9 (SEQ ID NO:9), Arabidopsis thaliana/soybean common codon usage bias (nucleic acid)
DNA: ATGGAGAAAGTTCTTCTACTGCATTCTTCCTCTGATGGTCAGACAGTGAAGATTCTCAGACATATTGAAACAACATTAGGTGGTGATTACCAATGTGAGCTTGTGGATTTGAATACTCTGCCGACTGTTGATTTTGCTGATTATGACCGTGTCTTAGTAGGCGCGAGTATACGCTATGGGCACCTCAACAAGAAACTCTACCAGTTTATAGAGAGATACAGAGATGAATTGGACCAAAACAAAGTAGGTTTCTTCTGCGTGAATCTTACTGCAAGGAAAGAAGGAAAGAATACGCCTGAGACTAGCGTTTACATGAAGACCTTTTTGAAGAAGTCGCCATGGTGTCCAAAATTGCAAGAAGTTTTCGCTGGAGCTCTTCGTTATCCTCGGTATGGATGGTTTGATAGGGTCATGATTCAGTTCATCATGAGAATCACGGGGGGAGAAACCGACACATCAAAAGAGGTTGAGTATACTGATTGGCAAAAGGTTGAAGCTTTTGCAGCCCGATTCAAACATTACTGA
modifications: The nucleotide sequence of PPO9A
B3: PPO10A: nucleotide sequence encoding microbial protoporphyrinogen oxidase PPO10 (SEQ ID NO:10), Arabidopsis thaliana/soybean common codon usage bias (nucleic acid)
DNA: ATGAAAGCTCTCTTTCTGTACTCGTCTCAAGAAGGACAGACAAGGAAGATTATAGAGAGAATCGCCCAGCAAATGCCGGAGTATGATTGTGATATTCAAGATCTTCATCAAGTAAGCGACATTGCATTAGCTGATTATGACAAGATCCTAATAGGGGCCAGTATCCGATATGGAAGATTGAATGATAAACTATATCAATTTATTCAGAGATATCTTCCCGATCTCCGCTCCAACAAAGCAGCTTTCTTCTGCGTCAATCTTACGGCGAGAAAGGAAGAACAAGGAAAAGACACCCCAGAAGGTTCTGTTTACATCCAGACTTTCTTGAAGAAATCACCATGGCAACCTGAGAGGATTGCAGTGTTTGCTGGTGCTCTTTACTATCCTCGTTACAGATGGTTTGATAAGATGATGATTCGGTTAATAATGACTTTGACCGGCGGTGAAACTGATACATCAAAAGAAGTTGAGTACACAAATTGGAACAAGGTTTCTCAGTTTGCGGAGCAGTTCCGTAACTGGTGA
modifications: The nucleotide sequence of PPO10A

Key:
Type in all cases: in vivo
Settings in all cases: 7 DAT, number of plants of 24 per genotype, grades
[1] = tested on: Arabidopsis thaliana T1 plants; experiment: oxyfluorfen tolerance of transgenic Arabidopsis thaliana T1 plants (spray, grade of pesticide damage)
Procedure, shortened: (§1)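 Saflufenacil (25, 100 g ai/ha), sulfentrazone (450, 900), flumioxazin (60, 240) and oxyfluorfen (180, 720) or water were sprayed on 18-day-old PPO-transgenic T1 plants, control-vector and wild-type plants, 24 per genotype. Seven days later, damage was graded: 0 as in water controls, 1 <10% injured leaf area, 3 100%.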

[2] = tested on: Arabidopsis thaliana T1 plants; experiment: saflufenacil tolerance of transgenic Arabidopsis thaliana T1 plants (spray, grade of pesticide damage)
Procedure, shortened: as §1

[3] = tested on: Arabidopsis thaliana T1 plants; experiment: flumioxazin tolerance of transgenic Arabidopsis thaliana T1 plants (spray, grade of pesticide damage)
Procedure, shortened: as §1

[4] = tested on: Arabidopsis thaliana T1 plants; experiment: sulfentrazone tolerance of transgenic Arabidopsis thaliana T1 plants (spray, grade of pesticide damage)
Procedure, shortened: as §1

Molecule | The grade of pesticide damage/plant: grade 0 ([1]; oxyfluorfen 180 g ai/ha (1×)) [plant] | The grade of pesticide damage/plant: grade 1 ([1]; oxyfluorfen 180 g ai/ha (1×)) [plant] | The grade of pesticide damage/plant: grade 2 ([1]; oxyfluorfen 180 g ai/ha (1×)) [plant] | The grade of pesticide damage/plant: grade 3 ([1]; oxyfluorfen 180 g ai/ha (1×)) [plant] | The grade of pesticide damage/plant: grade 0 ([1]; oxyfluorfen 720 g ai/ha (4×)) [plant] | The grade of pesticide damage/plant: grade 1 ([1]; oxyfluorfen 720 g ai/ha (4×)) [plant] | The grade of pesticide damage/plant: grade 2 ([1]; oxyfluorfen 720 g ai/ha (4×)) [plant] | The grade of pesticide damage/plant: grade 3 ([1]; oxyfluorfen 720 g ai/ha (4×)) [plant] | The grade of pesticide damage/plant: grade 0 ([2]; saflufenacil 25 g ai/ha (1×)) [plant] | The grade of pesticide damage/plant: grade 1 ([2]; saflufenacil 25 g ai/ha (1×)) [plant] | The grade of pesticide damage/plant: grade 2 ([2]; saflufenacil 25 g ai/ha (1×)) [plant] | The grade of pesticide damage/plant: grade 3 ([2]; saflufenacil 25 g ai/ha (1×)) [plant] | The grade of pesticide damage/plant: grade 0 ([2]; saflufenacil 100 g ai/ha (4×)) [plant] | The grade of pesticide damage/plant: grade 1 ([2]; saflufenacil 100 g ai/ha (4×)) [plant] | The grade of pesticide damage/plant: grade 2 ([2]; saflufenacil 100 g ai/ha (4×)) [plant] | The grade of pesticide damage/plant: grade 3 ([2]; saflufenacil 100 g ai/ha (4×)) [plant] | The grade of pesticide damage/plant: grade 0 ([3]; flumioxazin 60 g ai/ha (1×)) [plant] | The grade of pesticide damage/plant: grade 1 ([3]; flumioxazin 60 g ai/ha (1×)) [plant] | The grade of pesticide damage/plant: grade 2 ([3]; flumioxazin 60 g ai/ha (1×)) [plant] | The grade of pesticide damage/plant: grade 3 ([3]; flumioxazin 60 g ai/ha (1×)) [plant] | further results
B1 | 24 | 0 | 0 | 0 | 20 | 4 | 0 | 0 | 24 | 0 | 0 | 0 | 4 | 20 | 0 | 0 | 24 | 0 | 0 | 0 | The grade of pesticide damage/plant: grade 0 ([3]; flumioxazin 240 g ai/ha (4×)): 24 plant; The grade of pesticide damage/plant: grade 1 ([3]; flumioxazin 240 g ai/ha (4×)): 0 plant; The grade of pesticide damage/plant: grade 2 ([3]; flumioxazin 240 g ai/ha (4×)): 0 plant; The grade of pesticide damage/plant: grade 3 ([3]; flumioxazin 240 g ai/ha (4×)): 0 plant; The grade of pesticide: grade 0 ([4]; sulfentrazone 450 g ai/ha (1×)): 24; The grade of pesticide: grade 1 ([4]; sulfentrazone 450 g ai/ha (1×)): 0; The grade of pesticide: grade 2 ([4]; sulfentrazone 450 g ai/ha (1×)): 0; The grade of pesticide: grade 3 ([4]; sulfentrazone 450 g ai/ha (1×)): 0; The grade of pesticide: grade 0 ([4]; sulfentrazone 900 g ai/ha (2×)): 22; The grade of pesticide: grade 1 ([4]; sulfentrazone 900 g ai/ha (2×)): 2; The grade of pesticide: grade 2 ([4]; sulfentrazone 900 g ai/ha (2×)): 0; The grade of pesticide: grade 3 ([4]; sulfentrazone 900 g ai/ha (2×)): 0
B2 | 24 | 0 | 0 | 0 | 20 | 4 | 0 | 0 | 24 | 0 | 0 | 0 | 0 | 24 | 0 | 0 | 24 | 0 | 0 | 0 | The grade of pesticide damage/plant: grade 0 ([3]; flumioxazin 240 g ai/ha (4×)): 24 plant; The grade of pesticide damage/plant: grade 1 ([3]; flumioxazin 240 g ai/ha (4×)): 0 plant; The grade of pesticide damage/plant: grade 2 ([3]; flumioxazin 240 g ai/ha (4×)): 0 plant; The grade of pesticide damage/plant: grade 3 ([3]; flumioxazin 240 g ai/ha (4×)): 0 plant; The grade of pesticide: grade 0 ([4]; sulfentrazone 450 g ai/ha (1×)): 24; The grade of pesticide: grade 1 ([4]; sulfentrazone 450 g ai/ha (1×)): 0; The grade of pesticide: grade 2 ([4]; sulfentrazone 450 g ai/ha (1×)): 0; The grade of pesticide: grade 3 ([4]; sulfentrazone 450 g ai/ha (1×)): 0; The grade of pesticide: grade 0 ([4]; sulfentrazone 900 g ai/ha (2×)): 18; The grade of pesticide: grade 1 ([4]; sulfentrazone 900 g ai/ha (2×)): 6; The grade of pesticide: grade 2 ([4]; sulfentrazone 900 g ai/ha (2×)): 0; The grade of pesticide: grade 3 ([4]; sulfentrazone 900 g ai/ha (2×)): 0
B3 | 24 | 0 | 0 | 0 | 20 | 4 | 0 | 0 | 24 | 0 | 0 | 0 | 0 | 24 | 0 | 0 | 24 | 0 | 0 | 0 | The grade of pesticide damage/plant: grade 0 ([3]; flumioxazin 240 g ai/ha (4×)): 24 plant; The grade of pesticide damage/plant: grade 1 ([3]; flumioxazin 240 g ai/ha (4×)): 0 plant; The grade of pesticide damage/plant: grade 2 ([3]; flumioxazin 240 g ai/ha (4×)): 0 plant; The grade of pesticide damage/plant: grade 3 ([3]; flumioxazin 240 g ai/ha (4×)): 0 plant; The grade of pesticide: grade 0 ([4]; sulfentrazone 450 g ai/ha (1×)): 24; The grade of pesticide: grade 1 ([4]; sulfentrazone 450 g ai/ha (1×)): 0; The grade of pesticide: grade 2 ([4]; sulfentrazone 450 g ai/ha (1×)): 0; The grade of pesticide: grade 3 ([4]; sulfentrazone 450 g ai/ha (1×)): 0; The grade of pesticide: grade 0 ([4]; sulfentrazone 900 g ai/ha (2×)): 20; The grade of pesticide: grade 1 ([4]; sulfentrazone 900 g ai/ha (2×)): 4; The grade of pesticide: grade 2 ([4]; sulfentrazone 900 g ai/ha (2×)): 0; The grade of pesticide: grade 3 ([4]; sulfentrazone 900 g ai/ha (2×)): 0
